Assay results: patent US20150309012A1 (BAXTER INTERNATIONAL, published 2015)

Tests used:
Test in all cases: cell-based or functional assay
[1] = molecular target: T1, oxMIF on the cell surface of U937 human monocytic cells (human, UniProt P14174 2-115, oxidised isoform (oxMIF); residues not stated)
[2] = molecular target: T1, oxMIF on the cell surface of U937 human …; remark: listed apart in the source
[3] = molecular target: T1, oxMIF on the cell surface of U937 human …; remark: listed apart in the source

T1 sequence (P14174 2-115): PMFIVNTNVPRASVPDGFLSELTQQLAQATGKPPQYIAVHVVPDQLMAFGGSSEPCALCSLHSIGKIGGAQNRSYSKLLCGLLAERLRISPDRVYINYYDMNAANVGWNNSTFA

B1: anti-oxMIF antibody RAM9 (antibody, human IgG1, kappa, V domains shown)
VH: EVQLLESGGGLVQPGGSLRLSCAASGFTFSIYSMNWVRQAPGKGLEWVSSIGSSGGTTYYADSVKGRFTISRDNSKNTLYLQMNSLRAEDTAVYYCAGSQWLYGMDVWGQGTTVTVSS
VL: DIQMTQSPSSLSASVGDRVTITCRSSQRIMTYLNWYQQKPGKAPKLLIFVASHSQSGVPSRFRGSGSETDFTLTISGLQPEDSATYYCQQSFWTPLTFGGGTKVEIKR
[1]
  IC 50 of migration inhibition of U937 cells, antibody in the inserts (upper chamber), plate 2: 1100 pM
[2]
  IC50 (inhibition of cell migration, chemokinesis assay, MI against log RAM9): 0.8 nM
[3]
  IC50 of inhibition of random migration (chemokinesis) of U937 cells, Transwell, antibody in lower chamber; 25 experiments (38 plates): 800 pM
  IC50 of inhibition of random migration (chemokinesis) of U937 cells, Transwell, antibody in lower chamber; duplicate plates (26 plates from 13 experiments): 800 pM
